# Data as given in the supplement of paper PMC9732359.
# ± gives the uncertainty stated by the source.
# Test: protein stability index of a GFP-peptide fusion (yeast GPS) (PSI 1-4); higher = more stable; sorted into four equal gates, so the index is relative within each strain
# Procedure, shortened: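 Yeast carrying a pooled library were grown to mid-log phase in leucine-free medium. Each library plasmid expresses Cherry and has a tiled 17-residue yeast protein peptide fused downstream of GFP. Cells were sorted into four equal gates by GFP/Cherry ratio, and plasmids from each gate were PCR-amplified, Illumina-sequenced and assigned to strains by barcode. Summing, across gates, the read frequency times the gate number gave each peptide's protein stability index.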
Sequence,protein stability index (doa10∆),protein stability index (pdr5∆),protein stability index (san1∆),protein stability index (ubr1∆)
GIHDGHIKKLLHQYYGD [FAS1],1.44 ± 0.045,1.8 ± 0.051,1.85 ± 0.098,1.31 ± 0.03
DFDLLNKTLTFETETEV [FAS1],3.34 ± 0.079,3.37 ± 0.067,3.44 ± 0.045,3.3 ± 0.051
DYLFHLLISLNILFSLW [YLR018C/POM34],1.61 ± 0.041,1.34 ± 0.036,1.17 ± 0.072,1.21 ± 0.03
PVKVSGTIKKIEQFAMR [POP5],2.54 ± 0.089,2.65 ± 0.058,2.34 ± 0.082,2.56 ± 0.042
RFEVINNETEQLKAEEK [SMC1],1.72 ± 0.08,2.06 ± 0.092,3.05 ± 0.13,2.6 ± 0.12
SVLQLIVSEDHIILDTI [MED1],2.2 ± 0.17,2.7 ± 0.19,–,2.08 ± 0.26
ISVGESGDRLTRASKVL [RPL11A],–,3.08 ± 0.19,–,3.4 ± 0.22
NGQYAAFVKDMQVYLVP [RPC37],2.67 ± 0.12,1.52 ± 0.089,1.4 ± 0.073,1.83 ± 0.12
SIVEECDARFDEKTIEE [RPC17],2.98 ± 0.14,3.05 ± 0.088,3.09 ± 0.11,2.68 ± 0.21
LSDRITGNFIIPSGNVW [PRP8],2.76 ± 0.1,3.1 ± 0.087,2.84 ± 0.064,2.9 ± 0.065
SPIPFPPLTYKNDTKIL [PRP8],2.91 ± 0.057,2.56 ± 0.045,2.73 ± 0.059,2.24 ± 0.029
LLSIPISCPLIGVIQLA [FAS1],1.23 ± 0.07,1.27 ± 0.068,1.23 ± 0.12,1.08 ± 0.064
KLTSEETVFNYRLMIKR [GRR1],3.02 ± 0.12,2.96 ± 0.12,2.56 ± 0.12,2.82 ± 0.095
RIIEKSVRRSGALDVEG [RRP45],2.43 ± 0.07,2.65 ± 0.075,2.47 ± 0.11,2.53 ± 0.072
GISSTLVSANNDNNSPH [YLR018C/POM34],2.62 ± 0.051,2.89 ± 0.06,3.01 ± 0.058,2.96 ± 0.067
PFHDPEARLFNIWGTVR [ECM29],1.33 ± 0.26,1.43 ± 0.22,–,–
QEKQEQQEQDKKKKSNH [PRE6],1.97 ± 0.048,1.81 ± 0.044,2.55 ± 0.06,1.65 ± 0.04
LLPPIKIELIKNNLLIP [RPN12],2.16 ± 0.071,2.24 ± 0.062,1.75 ± 0.11,2.09 ± 0.044
TLEDALRRIITDLNQDS [GRR1],2.01 ± 0.074,1.86 ± 0.063,2.1 ± 0.067,2.4 ± 0.053
GDDESKIPAVEYFGGES [FAS1],–,3.17 ± 0.29,2.97 ± 0.2,–
IEPELFNGYNPEKKEMI [FAS2],3.18 ± 0.095,3.25 ± 0.13,3.33 ± 0.092,3.43 ± 0.14
KLLQLAGVEDVYTQSNG [RPS2],1.56 ± 0.066,2.64 ± 0.13,3.19 ± 0.13,3.13 ± 0.086
FIPNKQLNCVIDRVNGI [RPN7],2.47 ± 0.13,2.75 ± 0.21,2.73 ± 0.18,3.08 ± 0.18
DTVIIFDTDWNPHQDLQ [SNF2],2.93 ± 0.064,3.1 ± 0.05,3.02 ± 0.033,2.84 ± 0.044
SMGTMICGYTRKEGPTI [PRE2],3.27 ± 0.078,3.21 ± 0.077,3.33 ± 0.039,2.71 ± 0.069
KTICNLLISDTESNELI [IRR1],2.74 ± 0.063,2.73 ± 0.075,2.4 ± 0.055,2.68 ± 0.065
AFHNNLKFLYLLDAYSH [MED1],1.16 ± 0.07,1.25 ± 0.049,1.16 ± 0.1,1.26 ± 0.042
KDLKFPLPHRVQKSTKT [RPL20A],2.27 ± 0.053,2.68 ± 0.05,2.58 ± 0.052,2.69 ± 0.043
